System: MS2 coat protein
Experiment: apparent KD of MS2 coat protein; designed switch direction (-1 OFF switch, 1 ON switch): -1; higher = weaker reporter binding
Summary of the method: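 Transcription of designed RNA switches on Illumina chips was done by stalled E. coli RNA polymerase. SNAP-549-labelled MS2 coat protein was then titrated in doubling steps from 0.7 or 1.5 nM to 3 µM, with steps of 0.8–1.5 h at the lowest and 10–20 min at the highest concentration. The per-design median over clusters of curve-fitted normalised fluorescence is reported as apparent KD.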

[1] = input ligand: microRNA oligo, concentration not stated
[2] = Eterna round: R95, input ligand: microRNA oligo, concentration not stated
[3] = Eterna round: R95, input ligand: FMN 200 uM
[4] = Eterna round: R95, input ligand: none

Sequence	apparent KD of MS2 coat protein (input ligand: FMN 200 uM)	apparent KD of MS2 coat protein (input ligand: none)	apparent KD of MS2 coat protein [2]	also measured
UGUAGAGUGGUAGGAUAUCCGUCUGUUUCAGUCGGAGAAGGGCCACAGUCACUGGGUCCUAAUAUCAUGGAGACCUGAUCUACU [pwkr exNG1 F6.14] (Eterna round: R96, puzzle: Exclusion NG 1)	599 nM	383 nM	–	apparent KD of MS2 coat protein [1]: 288 nM
GAUCUGAUAGGAUAUACAUGAGGAUCACCCAUGUGCGAGCUAGCGAAAGCUAGCUCAGGUAGAAGGGUCAGAUC [Ex3 dot plot directed v2] (puzzle: Exclusion 3)	–	–	11.7 nM	–
CUUUUGUGAGGAUAUCAGUAGUAAUACAAUAGUAUUACUACUGAGAAGGCACAUGAGGAUCACCCAUGUUCCUU [Ex4 344 Omei mod 1] (puzzle: Exclusion 4)	–	–	14.5 nM	–
GAGUGAUAAGGAUAUACAUGAGGAUCACCCAUGUGCUUCAGCUAGGAGACUAGCAUUGGUAGAAGGUAUUACUC [Mod of lroppy 11 - Jieux - Exclusion 3] (Eterna round: R97, puzzle: Exclusion 3)	54.3 nM	18.7 nM	–	–
GCCGAUUAAGUGAGGAUAUACCUAUGGAUACAUAGGUAGAAGGUACAUGAGGAUCACCCAUGUUCCUCAUCGGC [Fiskers BMX 4 - 10] (puzzle: Brourd's mod of Exclusion 4)	–	–	9.97 nM	–
AUAUUACAUGAGGAUCACCCAUGUGAGGAUAUGGAGAGCGACCGCCCGGUCGCGUACACCAGAAGGCGCAGGCG [1st #59] (Eterna round: R97, puzzle: Exclusion 1)	85.7 nM	41.1 nM	–	–
GAUCAUGCAGGAUAUACAUUAACCAUGAAAACAUGGUUGUCACAUGAGGAUCACCCAUGUAGAAGGGCAUGAUC [Omei Ex2 A6] (Eterna round: R97, puzzle: Exclusion 2)	37.2 nM	23.5 nM	–	–
ACAUGACAUGAGGAUCACCCAUGUUAGGAUAUCCCUCGUCCUGACUGAACGUCGGAAUGGAGAAGGAGCAUGGC [Eternabot (L2) Solution 88] (Eterna round: R97, puzzle: Exclusion 1)	47.1 nM	45.8 nM	–	–
CCGCAAAAGCAGGAUAUCGUAUCGGAAACGAUACGAGAAGGGUUUACAUGAGGAUCACCCAUGUUCCUUAGCGG [Mat - Exclusion 6 - Eli Mod - D101] (puzzle: Exclusion 6)	–	–	28.7 nM	–
GGUGCUGGCGCGUCGGUGUUGGUGCAAUAAGCUUGUGAAACAUGAGGAUCACCCAUGUCCUCAUGGGCUCGUCUUGU [salish99_TOv2_r2_089] (puzzle: Sensor v3, turn-off variant 2)	–	–	13 nM	apparent KD of MS2 coat protein [3]: 123 nM; apparent KD of MS2 coat protein [4]: 138 nM
AGGACAUGAGGAUCACCCAUGUAGUGAGGUGUAUCCGAAGACGAGGAUAUACAGAGGAAAUAUCUGUAGAAGGUGUAAUAAAAU [Istediso] (Eterna round: R96, puzzle: Exclusion NG 3)	725 nM	299 nM	–	apparent KD of MS2 coat protein [1]: 247 nM
CCAAUGUAAGGAUAUGACAAUGGUAUCUUCGGAUACCAUUGUCAGAAGGUACAUGAGGAUCACCCAUGUACAAA [Ex4-3: 9] (puzzle: Exclusion 4)	–	–	13.4 nM	–
UAUAUGUCAGGAUAUUAGUAGUGGAUGAAUAAGAUUAUUGCUGAGAAGGGACAUGAGGAUCACCCAUGUUCCUC [JR_Ex4_Sub002] (Eterna round: R97, puzzle: Exclusion 4)	27.5 nM	18.5 nM	–	–
CGGCGCCUAGGAUAUACUCUGAGAAUCAGUUGGGUCUCCGGACAUGAGGAUCACCCAUGUAGAAGGAGGAAGCU [EX2 C.11] (Eterna round: R97, puzzle: Exclusion 2)	21.3 nM	18.4 nM	–	–
AUAUUGUGAGGAUAUGAACUUAGUAUCGAAAGAUACAAAGUUCAGAAGGCACAUGAGGAUCACCCAUGUUUCUC [Long static hairpin v7] (Eterna round: R97, puzzle: Exclusion 4)	703 nM	76.1 nM	–	–
UAAUUAAAUGUAGGAUAUCUGCACGAUUAGUGCAGAGAAGGACAUGAGGAUCACCCAUGUAGAUCAAAUUAAAUUAAUUUAAUU [ENG1/5-D1] (Eterna round: R96, puzzle: Exclusion NG 1)	92.2 nM	33.8 nM	–	apparent KD of MS2 coat protein [1]: 24.5 nM
UAUAUGUGAGGAUAUCAGGUGUGCUAGCGAACUGGUACAUCUGAGAAGGCACAUGAGGAUCACCCAUGUAUCUU [Mat - Exclusion 4 - Mod of JL - D46] (puzzle: Exclusion 4)	–	–	26.3 nM	–
AAGUACCGUCACGAUAGUGAUGGUACAACAAGCGAAUGUACAUGAGGAUCACCCAUGUCCUCUUUUGCUCGUCUUAU [Sensor 3 - 97] (puzzle: Sensor v3, turn-off variant 2)	–	–	31.9 nM	apparent KD of MS2 coat protein [3]: 130 nM; apparent KD of MS2 coat protein [4]: 155 nM

Sequence	apparent KD of MS2 coat protein (input ligand: FMN 200 uM)	apparent KD of MS2 coat protein (input ligand: none)	apparent KD of MS2 coat protein [2]	also measured
UGUUUACAUGAGGAUCACCCAUGUCAGGAUAUGCUCGAUAUAUGGAAACAUAUAUCGAGCAGAAGGGACUAGCG [Jieuxxlusion 4 - Jieux - Exclusion 1] (Eterna round: R97, puzzle: Exclusion 1)	85 nM	39.3 nM	–	–
GCCGUAAGUGUGAGGAUAUACCUAUGGAAACAUAGGUAGAAGGCACAUGAGGAUCACCCAUGUUCUCAAUCGGC [Mat - Exclusion 4 - Eli Mod - D5] (Eterna round: R97, puzzle: Brourd's mod of Exclusion 4)	458 nM	245 nM	–	–
CAGAAGGGAGGAUAUACAUGACCGUUUUAAUGGUUUUUAGUACAUGAGGAUCACCCAUGUAGAAGGCCCGAACU [EX2 B.23] (Eterna round: R97, puzzle: Exclusion 2)	51 nM	21.8 nM	–	–
CAGUACUGAGGAUAUACAUGAGGAUCACCCAUGUGCUUUAGCUAGGAUACUAGCACUAGUAGAAGGCAGUACUG [Fiskers Ex 3 828 mod 10] (puzzle: Exclusion 3)	–	–	12.3 nM	–
AAGAAACAUGAGGAUCACCCAUGUCAGGAUAUGAGAAGAAAGAAGAAGAAAGAAGGAAUCAGAAGGGACAAAGG [Ex 1 M6 Mod of Hoglahoo] (puzzle: Exclusion 1)	–	–	51.7 nM	apparent KD of MS2 coat protein [3]: 45.5 nM; apparent KD of MS2 coat protein [4]: 41.8 nM
UACGAAGAGUGAGGAUAUGUGCGACAAAGUUGCACAGAAGGCACAUGAGGAUCACCCAUGUGAGCUAGGUCGAAAGACCUAGCG [Omei Exc(NG)1 Av6] (Eterna round: R96, puzzle: Exclusion NG 1)	37 nM	19.7 nM	–	apparent KD of MS2 coat protein [1]: 13.6 nM
UGAGUGCUGCGAGGAUAUACAUGAGGAUCACCCAUGUGGAUGUCUGAGGCUUUGCCUCAGACAAUGUAGAAGGCGCAGUACUCU [JL ENG2 1.21] (Eterna round: R96, puzzle: Exclusion NG 2)	96.4 nM	21 nM	–	apparent KD of MS2 coat protein [1]: 14.2 nM
GCACGGUUGCUAGGAUAUCCUUGCGAUUAGCAAGGAGAAGGAGCACAUGAGGAUCACCCAUGUACCUCAAUAAUCCAUCCGUGC [Eli exng1 - 029] (Eterna round: R96, puzzle: Exclusion NG 1)	–	–	–	apparent KD of MS2 coat protein [1]: 11 nM
UAUUUAAGAGGAUAUACAUGAGGAUCACCCAUGUAUAUUAAAAUACAUGAUUUUUUAUGUAGAAGGCUUGGGUA [-21.5, -18.3 kcal, 35% A] (Eterna round: R97, puzzle: Exclusion 3)	23.6 nM	16.9 nM	–	–
AAACUCCCAACCACCGGGAACAUGAGGAUCACCCAUGUGGCGUGACUCAUACGGGCUUUUUGUUCGUUUUAUUCACG [Soesesqu] (puzzle: Sensor v3, turn-off variant 1)	–	–	20.1 nM	apparent KD of MS2 coat protein [3]: 69 nM; apparent KD of MS2 coat protein [4]: 72.5 nM
AGAGCACGAGGAUAUACAAGGAUAACUCGCAGAUCGUCAGUACAUGAGGAUCACCCAUGUAGAAGGUGUUAGCA [Eternabot (Original) Solution 6] (Eterna round: R97, puzzle: Exclusion 2)	41.2 nM	58.9 nM	–	–
CAUGUCCAACGAGGAUAUGGGACAGGAAGUGUACCAGAAGGCGUACGGACAUGAGGAUCACCCAUGUCGCGCGGUGCGAUGUGG [MOD Nando EXNG 1.1] (Eterna round: R96, puzzle: Exclusion NG 1)	47 nM	91.7 nM	–	apparent KD of MS2 coat protein [1]: 23.8 nM
UUAAUUAAUUGACUGCAAGAUCAACAUGAGGAUCACCCAUGUGAGGAUAUCAGCUCGUGUAGAGCUGAGAAGGCACAAGCAGUC [ExNG3/16-A3] (Eterna round: R96, puzzle: Exclusion NG 3)	73.6 nM	21.8 nM	–	apparent KD of MS2 coat protein [1]: 13.4 nM
CCAGGCAGUGUGAGGAUAUGCUGGUCCUUGGAUCAGCAGAAGGCACAUGAGGAUCACCCAUGUGAAGAGCUUGG [JL bmx4 3.24] (puzzle: Brourd's mod of Exclusion 4)	–	–	24.1 nM	–
UGCAGACGAGGAUAUAGAUUUAGAUACAUGAGGAUCACCCAUGUAUAGAUGUAUUUAGAUUUAGAAGGCGUCUGCU [E5/13-A4] (Eterna round: R97, puzzle: Exclusion 5)	156 nM	176 nM	–	–
ACGCGUGAAGGAUAUACGCGGGCCCAAGCGGAUCACACCGCACAUGAGGAUCACCCAUGUAGAAGGUCGCAAAA [r4x2dt3] (Eterna round: R97, puzzle: Exclusion 2)	33.4 nM	13.9 nM	–	–
GUAACAUGCUGGUGAUCAUACAUGAGGAUCACCCAUGUAACAAGCUUUUUGCUCGUCUUAUAAUUUAAGAUCACCAG [Stov1/7-A3] (Eterna round: R97, puzzle: Sensor, turn-off variant 1)	16.3 nM	16.2 nM	–	–
